# Results from the RNAGym collection of RNA variant scans (doi:10.1073/pnas.2313332121).
# B1: TPR t1 (parent)
# chain: GACCAAUCUGCCCUCAGAGCUCGAGAACAUCUUCGGAUGCAGAGGAGGCAGGCUUCGGUGGCGCGAUAGCGCCAACGUCCUCAACCUCCAAUGCAUCCCACCACAUGAUGAUGCCUGAAGAGCCUUGGUUUUUUG
# Variants of: B1
# Assay: polymerase ribozyme fitness, log enrichment relative to wild type (log ratio); higher = more active; in vitro selection for triplet polymerase activity
# How it was run: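 Frozen incubation at −7 °C formed the core of a single, triplicate in vitro selection round applied to PCR-built, transcribed mutant libraries of each subunit of a heterodimeric triplet polymerase ribozyme. Extended constructs were gel-excised, captured with streptavidin beads and amplified by RT-PCR, and input and output libraries were Illumina-sequenced with a filter of ≥10 input reads and ≥1 read per output. Fitness is the logarithm of genotype enrichment relative to wild-type enrichment, with inverse-variance-weighted replicate averaging, and the logarithm is base 2.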
row,Variant,polymerase ribozyme fitness (log ratio)
1,C76G A119U,-1.37
2,C79U A84G,-0.834
3,U78A A118G,-0.761
4,U78C A105G U112G,-3.99
5,G77U U131G,-1.01
6,G77A C123G,1.16
7,G77A C123U,1.1
8,C76A C79U C82G A100C C101A,-4.79
9,C79A C124G,-0.697
10,U78G C89U U125G,-0.754
11,C79G C88G U112A,-1.98
12,C76A G127U,-2.17
13,C79G U131C,-1.28
14,C79U A90C G93A,-2.09
15,U78C G93C U96C C115A,-1.13
16,C79A U116G,-4.15
17,U78A C114U,-1.83
18,U78C A84C G113U G128A,-4.29
19,U78C C94A,-0.785
20,A75U C99U G120U,-4.3
21,C76A C94A C101A,-2.64
22,U78G C102U G110A,-4.35
23,U78G C85G C88A A111G C114A,-6.16
24,G77C C89U G110C G135A,-4.53

row,Variant,polymerase ribozyme fitness (log ratio)
1,U78C C114G,-2.46
2,U78C C114U,-2.28
3,A74U G93U G120A U125G U129G,-2.55
4,C79A A91G,-2.3
5,C76A U81A C89U,-1.33
6,A74U G128C,-2.66
7,C76G C89U,-0.321
8,A75U C104A A121U C124U,0.403
9,G77C C124U,1.82
10,U78A U133A,-0.443
11,G77A C88U,-0.0927
12,C76A C79G C123G,0.511
13,U78A A95U U112G U133A,0.61
14,A74U C101U,-0.51
15,U78G G120U,-0.202
16,C76G G93A C115G,-4.44
17,U78C U87G C88A G113A G127A,-3.89
18,A75G G120A A121C,0.562
19,U78C C94U U112C,0.656
20,A75G C79U,-0.682
21,G77A A91G C114U,-2.54
22,C76G U130A,-0.718
23,U78G U87C,0.411
24,G77C A83C,-0.826

row,Variant,polymerase ribozyme fitness (log ratio)
1,C76A A90G,-0.633
2,G77U U78G C123A,-0.257
3,U78G G117C,-4.47
4,U78C G93A,-0.707
5,C79A U106G,-3.37
6,C79A G113A C124G,-3.89
7,G77C C85U,-1.99
8,U78C C124U,1.72
9,G77A C86U U112A,1.14
10,U78C A103U,-5.46
11,U78C C97G C104A,-4.78
12,C79G U112A,-1.41
13,U78C A121C,1.83
14,G77U C88U C115U U131A,-1.33
15,C76G A91U U132A,-1.52
16,U78A C89G,-1.56
17,C76A C94U G117C,-5.54
18,U78C A91G,-1.15
19,C76A U78A A91U U112G,-3.63
20,U78A C94G A118U G120C U132A,-0.124
21,U78G C88G,-0.734
22,C79A A119G,-0.23
23,U78C G113C,-1.53
24,U78C G113U,-3.31

row,Variant,polymerase ribozyme fitness (log ratio)
1,U78C A83C C89G,-2.02
2,G77C U81G,-1.57
3,U78C G135U,-1.27
4,C76A A83C,-0.201
5,U78C U96A,-0.969
6,U78C G122A,-1.22
7,U78C U92G,-2.87
8,G77A C80U G113A,-1.46
9,C79U A91C A100U,-3.6
10,G77U G117A,-1.62
11,C79A G107U A119G G135C,-5.92
12,C76G U106C G128C,-3.27
13,U78A A95U,-0.329
14,C79G U116A,-4.35
15,C79A C94A G117U,-4.86
16,A74U C115U A118U C124U,-0.812
17,U78A C102A U112A,-1.54
18,U78C C85U U112A,0.233
19,U78C A83U G117C A119U,-3.98
20,A75G A83C U130C U132A,0.388
21,U78G U112G,1.33
22,C79A C115G A118U,-4.7
23,G77A C102A,-2.07
24,U78C C79U U106C,0.0469

row,Variant,polymerase ribozyme fitness (log ratio)
1,A75G A121G,1.42
2,U78C C82U C123G G127C,-1.21
3,C79A G117U,-3.95
4,C76A A105U C124A,-1.25
5,G77U A103C,-4.83
6,C79U A119U,-0.48
7,U78C C80G,-4.13
8,U78C C80A,-1.94
9,G77A C101A G117A,-3.06
10,A74U C114A U129A,-3.53
11,C79G A108G,-3.63
12,C76U C102U,-2.21
13,U78G G128A,-1.19
14,C76U A83U,-0.0435
15,U78C A100U U125G,-1.3
16,C79A G110U,-3.48
17,C79A G110C,-5.36
18,U78C A83C G113U,-3.26
19,C79A A121U U134G,2.45
20,A75G C123U U125G U126A,0.149
21,C79G G127U,-2.87
22,C79G G127A,-2.38
23,U78C C89U G93U,-1.09
24,G77C C101A G127A,-2.16

row,Variant,polymerase ribozyme fitness (log ratio)
1,U78C C86G,-0.656
2,C79G G110C,-6.49
3,C79G G110A,-3.53
4,C76G C114U,-2.74
5,C79G C114G,-5.17
6,A75G G117A,-1.28
7,G77A C79G A100U G113U C123G,-6.77
8,G77C U131G,-0.172
9,U78A C101G,-2.13
10,G77C C79U,0.563
11,U78C U87A U130C,0.517
12,G77A U132C,-0.208
13,U78C C115G U133A,-1.97
14,G77C C124U G127A U129A,-0.0326
15,A75G U96A A105G,-6.14
16,U78C C89A,-0.68
17,C79A C80G,-5.91
18,U78C A100U,-0.819
19,C76A U106A,-1.33
20,U78G G113A U130C,-1.64
21,A75U G113A G127C,-2.56
22,U78A G135U,-0.889
23,C79G C114A C115G,-6.59
24,U78A C94G C101A,-1.93

row,Variant,polymerase ribozyme fitness (log ratio)
1,U78A G120U,-0.295
2,C79G G122A,-2.11
3,U78C A95C,-1.06
4,U78C C98U U112A U130A,-3.27
5,C76U A118G,-0.0957
6,G77A U109C,-3
7,C79A C99G G120U,-7.33
8,G77A C80U,-0.237
9,G77C U96A U125A,-3.38
10,G77U C114G C124G,-1.15
11,C79A C82G U112A,-1.75
12,C79G A90C U112A,-3.88
13,C76U C80G U96C G120C,-4.89
14,C76U U112A,0.984
15,G77U G113A G135A,-1.34
16,A74U U92A,-3.82
17,A74U U92G,-3.01
18,A75G C98U,-0.624
19,C79A C114G,-4.53
20,C79A C114A,-2.46
21,C79A G117U G120C,-3.42
22,C76G U78A,0.247
23,C79A C115G,-2.56
